Assay results reported in patent publication US20260125665.

Key:
[1] = tested on: Microlyse variant 1.1
[2] = tested on: Microlyse variant 1.0

Thrombin was tested, and the “cleavage by thrombin (reducing SDS-PAGE, Western blot with anti-human UPA antibody)” value [1] was “For both ML 1.0 and ML 1.1 a distinct band at around 35 Kd is observed, indicating cleavage of Microlyse by thrombin” and the “cleavage by thrombin (reducing SDS-PAGE, Western blot with anti-human UPA antibody)” value [2] was “For both ML 1.0 and ML 1.1 a distinct band at around 35 Kd is observed, indicating cleavage of Microlyse by thrombin”.
